# Test results published in the supplement of paper PMC11246515.
# ± gives the standard deviation of the averaged measurements.
# Assay: total protein half-life in vivo (active degradation + dilution); higher = more stable protein
# [1] = E. coli NCM3722 delta-clpP delta-lon delta-hslV, growth: N-lim chemostat, doubling time 6 h
# [2] = E. coli NCM3722 delta-clpP, growth: N-lim chemostat, doubling time 6 h
# [3] = E. coli NCM3722 delta-hslV, growth: N-lim chemostat, doubling time 6 h
# [4] = E. coli NCM3722 delta-lon, growth: N-lim chemostat, doubling time 6 h
# [5] = E. coli NCM3722 delta-smpB, growth: N-lim chemostat, doubling time 6 h
# [6] = wild type E. coli NCM3722, growth: C-lim chemostat, doubling time 3 h
# [7] = wild type E. coli NCM3722, growth: C-lim chemostat, doubling time 6 h
# [8] = wild type E. coli NCM3722, growth: C-lim chemostat, doubling time 12 h
# [9] = wild type E. coli NCM3722, growth: N-lim chemostat, doubling time 6 h
# [10] = wild type E. coli NCM3722, growth: N-lim chemostat, doubling time 12 h
# [11] = wild type E. coli NCM3722, growth: P-lim chemostat, doubling time 6 h
# [12] = wild type E. coli NCM3722, growth: P-lim chemostat, doubling time 12 h
Sequence,total protein half-life in vivo [1] [h],total protein half-life in vivo [2] [h],total protein half-life in vivo [3] [h],total protein half-life in vivo [4] [h],total protein half-life in vivo [5] [h],total protein half-life in vivo [6] [h],total protein half-life in vivo [7] [h],total protein half-life in vivo [8] [h],total protein half-life in vivo [9] [h],total protein half-life in vivo [10] [h],total protein half-life in vivo [11] [h],total protein half-life in vivo [12] [h]
MTVRVAINGFGRIGRNVVRALYESGRRAEITVVAINELADAAGMAHLLKYDTSHGRFAWEVRQERDQLFVGDDAIRVLHERSLQSLPWRELGVDVVLDCTGVYGSREHGEAHIAAGAKKVLFSHPGSNDLDATVVYGVNQDQLRAEHRIVSNASCTTNCIIPVIKLLDDAYGIESGTVTTIHSAMHDQQVIDAYHPDLRRTRAASQSIIPVDTKLAAGITRFFPQFNDRFEAIAVRVPTINVTAIDLSVTVKKPVKANEVNLLLQKAAQGAFHGIVDYTELPLVSVDFNHDPHSAIVDGTQTRVSGAHLIKTLVWCDNEWGFANRMLDTTLAMATVAFR [P0A9B6],4.55 ± 0.44,5.54 ± 2.7,4.07 ± 1.2,4.77 ± 1.6,3.65 ± 0.18,2.85 ± 0.086,5.08 ± 0.25,8.49 ± 0.63,3.49 ± 0.19,5.94 ± 0.99,5.48 ± 0.15,10 ± 0.75
MSKRYFVTGTDTEVGKTVASCALLQAAKAAGYRTAGYKPVASGSEKTPEGLRNSDALALQRNSSLQLDYATVNPYTFAEPTSPHIISAQEGRPIESLVMSAGLRALEQQADWVLVEGAGGWFTPLSDTFTFADWVTQEQLPVILVVGVKLGCINHAMLTAQVIQHAGLTLAGWVANDVTPPGKRHAEYMTTLTRMIPAPLLGEIPWLAENPENAATGKYINLALL,5.58 ± 0.28,5.37 ± 1.1,4.33 ± 0.7,5.17 ± 0.34,4.64 ± 0.34,3.06 ± 0.18,6.24 ± 0.58,,5.44 ± 0.92,9.86 ± 1.2,5.77 ± 0.12,12.5 ± 0.99
MSNKNVNVRKSQEITFCLLAGILMFMAMMVAGRAEAGVALGATRVIYPAGQKQEQLAVTNNDENSTYLIQSWVENADGVKDGRFIVTPPLFAMKGKKENTLRILDATNNQLPQDRESLFWMNVKAIPSMDKSKLTENTLQLAIISRIKLYYRPAKLALPPDQAAEKLRFRRSANSLTLINPTPYYLTVTELNAGTRVLENALVPPMGESTVKLPSDAGSNITYRTINDYGALTPKMTGVME,4.77,,,,5.38 ± 0.18,,5.55 ± 0.66,> 16,7.84,14.8,5.67,13.2 ± 3
MNKRDAINHIRQFGGRLDRFRKSVGGSGDGGRNAPKRAKSSPKPVNRKTNVFNEQVRYAFHGALQDLKSKPFATFLTVMVIAISLTLPSVCYMVYKNVNQAATQYYPSPQITVYLQKTLDDDAAAGVVAQLQAEQGVEKVNYLSREDALGEFRNWSGFGGALDMLEENPLPAVAVVIPKLDFQGTESLNTLRDRITQINGIDEVRMDDSWFARLAALTGLVGRVSAMIGVLMVAAVFLVIGNSVRLSIFARRDSINVQKLIGATDGFILRPFLYGGALLGFSGALLSLILSEILVLRLSSAVAEVAQVFGTKFDINGLSFDECLLLLLVCSMIGWVAAWLATVQHLRHFTPE [P0AC30],6.31 ± 0.59,6.43 ± 0.28,6.04 ± 0.071,6.55 ± 0.64,6.02 ± 0.32,3.17 ± 0.15,5.86 ± 0.36,12.5 ± 2.4,6.42 ± 0.099,12.3 ± 1.8,5.99 ± 0.82,13.5 ± 1.3
MVWIDYAIIAVIAFSSLVSLIRGFVREALSLVTWGCAFFVASHYYTYLSVWFTGFEDELVRNGIAIAVLFIATLIVGAIVNFVIGQLVEKTGLSGTDRVLGVCFGALRGVLIVAAILFFLDSFTGVSKSEDWSKSQLIPQFSFIIRCFFDYLQSSSSFLPRA,,,,,,,,,,7.81,,
MMNNKVSFTNSNNPTISLSAVIYFPPKFDETRQYQAIVLSHPGGGVKEQTAGTYAKKLAEKGFVTIAYDASYQGESGGEPRQLENPYIRTEDISAVIDYLTTLSYVDNTRIGAMGICAGAGYTANAAIQDRRIKAIGTVSAVNIGSIFRNGWENNVKSIDALPYVEAGSNARTSDISSGEYAIMPLAPMKESDAPNEELRQAWEYYHTPRAQYPTAPGYATLRSLNQIITYDAYHMAEVYLTQPTQIVAGSQAGSKWMSDDLYDRASSQDKRYHIVEGANHMDLYDGKAYVAEAISVLAPFFEETL,6.23 ± 1.9,4.63 ± 0.35,4.23 ± 0.18,,4.02 ± 0.44,,6.58 ± 0.55,11.2 ± 1.6,4.088 ± 0.028,6.51 ± 0.44,6.21 ± 0.18,13.7 ± 2.8
MDIPRIFTISESEHRIHNPFTEEKYATLGRVLRMKPGTRILDLGSGSGEMLCTWARDHGITGTGIDMSSLFTAQAKRRAEELGVSERVHFIHNDAAGYVANEKCDVAACVGATWIAGGFAGAEELLAQSLKPGGIMLIGEPYWRQLPATEEIAQACGVSSTSDFLTLPGLVGAFDDLGYDVVEMVLADQEGWDRYEAAKWLTMRRWLEANPDDDFAAEVRAELNIAPKRYVTYARECFGWGVFALIAR,5.64 ± 0.16,,5.71 ± 1.8,,3.54 ± 0.12,2.7 ± 0.65,4.93 ± 0.38,9.89 ± 1.2,3.97,8.49,7.11,12.41 ± 0.083
MNINRDKIVQLVDTDTIENLTSALSQRLIADQLRLTTAESCTGGKLASALCAAEDTPKFYGAGFVTFTDQAKMKILSVSQQSLERYSAVSEKVAAEMATGAIERADADVSIAITGYGGPEGGEDGTPAGTVWFAWHIKGQNYTAVMHFAGDCETVLALAVRFALAQLLQLLL,4.97 ± 0.3,4.57 ± 0.048,4.76 ± 0.46,5.18 ± 0.69,4.38 ± 0.19,3.14 ± 0.69,6.15 ± 0.4,9.68,4.8 ± 0.062,11.1 ± 3.5,5.68 ± 0.57,12.6 ± 0.67
